In publication PMC4859805, “Molecular mechanism of activation-triggered subunit exchange in Ca^2+/calmodulin-dependent protein kinase II” (eLife, 2016) one finds response data, which are given here for three variants.

The labels stand for the following.
B1: Peptide B (human CaMKII-α 290-309, unphosphorylated, unlabeled) [human] / human CaMKII-α hub domain [human] (parent complex)
chain 1: LKKFNARRKLKGAILTTMLA
chain 2: VRKQEIIKVTEQLIEAISNGDFESYTKMCDPGMTAFEPEALGNLVEGLDFHRFYFENLWSRNSKPVHTTILNPHIHLMGDESACIAYIRITQYLDAGGIPRTAQSEETRVWHRRDGKWQIVHFHRSGAPSV

In the experiment the parent is B1. Description: fluorescence polarisation competition; point read at 500 µM unlabeled peptide; 2 nM labeled peptide A bound to 30 µM hub; lower polarization = more labeled peptide competed off; parent: 150; read off a plot.
chain 1 LKEFNAERKLEGAILTTMLA: the response is ~210.

In the case of chain 1 LKKFNARRKLEGAILTTMLA, the response is ~180.

With chain 1 LKKFNAERKLKGAILTTMLA, the response was ~160.
